Results from paper PMC8289069, “Functional requirement of terminal inverted repeats for efficient ProtoRAG activity reveals the early evolution of V(D)J recombination”.

Target: T1, mRAG1F (mouse, UniProt P15919 389-456)
T1 sequence: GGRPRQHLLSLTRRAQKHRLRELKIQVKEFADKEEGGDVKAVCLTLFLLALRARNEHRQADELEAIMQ
Test: DNA-binding assay (type not stated); EMSA: 25 mM MOPS pH 7.0, 50 mM KCl, 2 mM DTT, 1.5 mM CaCl2, 2.5% glycerol, 50 nM HMGB1, 100 nM ss nonspecific oligo, ~50 nM each RAG, 25 C 20 min; pull-down: 50 mM Tris pH 7.5, 150 mM NaCl, 0.5% NP40, 5% glycerol, 1.5 mM CaCl2, 4 C
Conditions: protein: recombinant; chain copies: 2; label: 5' biotin on strand 1; blunt

B1: 12RSS (dsDNA)
DNA 1: GATCTGGCCTGTCTTACACAGTGATACAGACCTTAACAAAAACCCTGCAG
DNA 2: CTGCAGGGTTTTTGTTAAGGTCTGTATCACTGTGTAAGACAGGCCAGATC
- binding result: binds
